Measured values reported in PMC7442819, “Taf14 recognizes a common motif in transcriptional machineries and facilitates their clustering by phase separation” (Nature Communications, 2020).
Where “and” joins values, the source holds several entries; their conditions need not be identical. Equal entries are not always repeated.

B6: Taf14ET (Taf14_(174–244)) (domain or fragment, Saccharomyces cerevisiae, UniProt P35189 174-244, looked up)
chain: KGSVDLEKLAFGLTKLNEDDLVGVVQMVTDNKTPEMNVTNNVEEGEFIIDLYSLPEGLLKSLWDYVKKNTE
notes: Taf14, Saccharomyces cerevisiae, ET domain, residues 174-244; 15N- or 15N/13C-labelled for NMR; also called Taf14 ET domain; 15N-Taf14ET; source: E. coli Rosetta, purified (Ni-NTA, on-beads digestion, SEC)
B7: GST-Taf14_(174–244) (domain or fragment, Saccharomyces cerevisiae, UniProt P35189 174-244, looked up)
chain: KGSVDLEKLAFGLTKLNEDDLVGVVQMVTDNKTPEMNVTNNVEEGEFIIDLYSLPEGLLKSLWDYVKKNTE
notes: Taf14, Saccharomyces cerevisiae, ET domain, residues 174-244; also called GST-Taf14ET; GST-tagged Taf14ET; source: E. coli Rosetta, purified (Ni-NTA, eluted as GST-fused protein, SEC); not shown: 6*His-GST, N-terminal, kept

Columns and labels:
[1] = biological target: B6; test: ITC; peptide at 1.0 mM in the syringe titrated into Taf14ET at 0.1 mM in the cell; 20 mM phosphate pH 7.0, 100 mM NaCl, 2 mM DTT; 25 °C; one binding site model; conditions: both partners purified
[2] = biological target: T1, Taf14ET (Taf14_(174–244)) (Saccharomyces cerevisiae, UniProt P35189 174-244); test: ITC
T1 chain: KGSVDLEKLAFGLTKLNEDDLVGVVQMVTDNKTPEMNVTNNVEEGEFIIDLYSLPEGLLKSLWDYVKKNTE

[3] = biological target: T2, Taf14ET (Taf14_(174–244)) (Saccharomyces cerevisiae), P35189; test: ITC; conditions: modification not given
T2 chain: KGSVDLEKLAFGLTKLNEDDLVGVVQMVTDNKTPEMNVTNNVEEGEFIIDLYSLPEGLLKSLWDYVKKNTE

GST-Taf14_(174–244) = biological target: B7; test: pull-down; GST-tagged ET domain (25 μg) and binding partner (50 μg) with glutathione–Sepharose 4B beads; 25 mM Tris-HCl pH 8.0, 150 mM NaCl, 2 mM DTT; 4 °C, 3 h; SDS-PAGE; conditions: both partners purified
[4] = biological target: the molecule itself; test: 15N-1H HSQC at several concentrations; apo 15N-Taf14ET at 0.05, 0.1, 0.2 and 0.5 mM
Sth1EBM L1204A = Sth1EBM L1204A (Saccharomyces cerevisiae, UniProt P32597 1183-1240, L1204A); test: ITC
Sth1EBM V1206A = Sth1EBM V1206A (Saccharomyces cerevisiae, UniProt P32597 1183-1240, V1206A); test: ITC
Sth1EBM I1208A = Sth1EBM I1208A (Saccharomyces cerevisiae, UniProt P32597 1183-1240, I1208A); test: ITC
Sth1EBM K1207E = Sth1EBM K1207E (Saccharomyces cerevisiae, UniProt P32597 1183-1240, K1207E); test: ITC
Sth1EBM L1210A = Sth1EBM L1210A (Saccharomyces cerevisiae, UniProt P32597 1183-1240, L1210A); test: ITC
Sth1EBM K1209E = Sth1EBM K1209E (Saccharomyces cerevisiae, UniProt P32597 1183-1240, K1209E); test: ITC
Sth1_(1183–1359) = biological target: T3, Sth1_(1183–1359) (Saccharomyces cerevisiae, UniProt P32597 1183-1359); test: pull-down; GST-tagged ET domain (25 μg) and binding partner (50 μg) with glutathione–Sepharose 4B beads; 25 mM Tris-HCl pH 8.0, 150 mM NaCl, 2 mM DTT; 4 °C, 3 h; SDS-PAGE; conditions: both partners purified
T3 construct: source: E. coli Rosetta, purified
T3 sequence (looked up): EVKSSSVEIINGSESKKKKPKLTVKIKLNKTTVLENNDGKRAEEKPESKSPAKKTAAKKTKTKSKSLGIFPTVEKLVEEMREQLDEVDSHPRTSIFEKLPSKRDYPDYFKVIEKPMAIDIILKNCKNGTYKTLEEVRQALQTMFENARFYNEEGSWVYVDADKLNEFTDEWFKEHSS

Taf14ET I222R = Taf14ET I222R (Saccharomyces cerevisiae, UniProt P35189 174-244, I222R); test: ITC
[5] = biological target: T1, Taf14ET (Taf14_(174–244)); test: ITC
Taf14ET F220R = Taf14ET F220R (Saccharomyces cerevisiae, UniProt P35189 174-244, F220R); test: ITC
Taf14ET F220A = biological target: T4, Taf14ET F220A (Saccharomyces cerevisiae); test: ITC
T4 chain: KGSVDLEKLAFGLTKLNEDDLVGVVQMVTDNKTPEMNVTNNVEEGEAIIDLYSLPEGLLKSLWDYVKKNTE

[6] = biological target: T1, Taf14ET (Taf14_(174–244)); test: ITC

B1: Tfg1 motif from 685 to 700 (peptide, UniProt P41895 685-700, looked up)
peptide: EAIGDGKVNIKEFGKF
notes: Tfg1, Saccharomyces cerevisiae, second motif, residues 685-700
- Kd [1]: ~9 µM

B2: Sas3_(111–129) (peptide, UniProt P34218 111-129, looked up)
peptide: SEELKVRIKYDSIKFFNFE
notes: Sas3, Saccharomyces cerevisiae, residues 111-129; source: synthetic peptide (Scilight-Peptide and GenScript) for NMR
- binding result [1]: binds
- Kd [2]: 31.3 µM

B3: Ino80EBM L377A (peptide)
chain: DSKLNIKITAKQYHVKRLKKLIN
- Kd [3]: 3.87 µM

B4: Sth1_(1199–1225) (domain or fragment, Saccharomyces cerevisiae, UniProt P32597 1199-1225, looked up)
chain: KKKPKLTVKIKLNKTTVLENNDGKRAE
notes: source: E. coli Rosetta, purified
- binding result (GST-Taf14_(174–244)): binds

B5: Tfg1 fragment containing both motifs (domain or fragment)
chain: DTLSKSKRSSPKKQQKKATNAHVHKEPTLRVKSIKNCVIILKGDKKILKSFPEGEWNPQTTKAVDSSNNASNTVPSPIKQEEGLNSTVAEREETPAPTITEKDIIEAIGDGKVNIKEFGKFIRRKYPGAENKKLMFAIVKKLCRKVGNDHMELKKE
- Kd [1]: ~0.33 µM

Binder: B6
- binding result [4]: binds
- Kd (Sth1EBM L1204A): 2.06 µM
- Kd (Sth1EBM V1206A): 2.04 µM
- Kd (Sth1EBM I1208A): 13.4 µM
- Kd (Sth1EBM K1207E): 3.94 µM and 7.69 µM
- Kd (Sth1EBM L1210A): 1.14 µM
- Kd (Sth1EBM K1209E): 7.69 µM and 3.94 µM

Binder: B7
- binding result (Sth1_(1183–1359)): binds

B8: Tfg1 motif from 613 to 628 (peptide, UniProt P41895 613-628, looked up)
peptide: IKNCVIILKGDKKILK
notes: Tfg1, Saccharomyces cerevisiae, first motif, residues 613-628
- Kd [1]: ~17 µM

B9: Sth1EBM (Sth1_(1183–1240)) (domain or fragment, Saccharomyces cerevisiae, UniProt P32597 1183-1240, looked up)
chain: EVKSSSVEIINGSESKKKKPKLTVKIKLNKTTVLENNDGKRAEEKPESKSPAKKTAAK
notes: source: E. coli Rosetta, purified (Ni-NTA, on-beads digestion, SEC)
- Kd [1]: ~0.055 µM
- Kd (Taf14ET I222R): 54.6 µM
- Kd [5]: 0.05 µM
- Kd (Taf14ET F220R): 3.5 µM
- Kd (Taf14ET F220A): 0.68 µM
- Kd [6]: 0.372 µM and 0.194 µM

B10: Sth1EBM I1208A (domain or fragment, Saccharomyces cerevisiae, UniProt P32597 1183-1240, looked up)
chain: EVKSSSVEIINGSESKKKKPKLTVKAKLNKTTVLENNDGKRAEEKPESKSPAKKTAAK
notes: also called Sth1^I1208A; source: E. coli Rosetta, purified (same protocol as the wild type)
- fold increase of KD against wild-type Sth1EBM [1]: 270 fold

B11: Sth1EBM L1204A (domain or fragment, Saccharomyces cerevisiae, UniProt P32597 1183-1240, looked up)
chain: EVKSSSVEIINGSESKKKKPKATVKIKLNKTTVLENNDGKRAEEKPESKSPAKKTAAK
notes: source: E. coli Rosetta, purified (same protocol as the wild type)
- binding result [1]: binds

B12: Sth1EBM L1210A (domain or fragment, Saccharomyces cerevisiae, UniProt P32597 1183-1240, looked up)
chain: EVKSSSVEIINGSESKKKKPKLTVKIKANKTTVLENNDGKRAEEKPESKSPAKKTAAK
notes: as for B11
- binding result [1]: binds

B13: Sth1EBM V1206A (domain or fragment, Saccharomyces cerevisiae, UniProt P32597 1183-1240, looked up)
chain: EVKSSSVEIINGSESKKKKPKLTAKIKLNKTTVLENNDGKRAEEKPESKSPAKKTAAK
notes: as for B11
- binding result [1]: binds

B14: Sth1EBM K1207E (domain or fragment, Saccharomyces cerevisiae, UniProt P32597 1183-1240, looked up)
chain: EVKSSSVEIINGSESKKKKPKLTVEIKLNKTTVLENNDGKRAEEKPESKSPAKKTAAK
notes: as for B11
- fold increase of KD against wild-type Sth1EBM [1]: 154 fold

B15: Sth1EBM K1209E (domain or fragment, Saccharomyces cerevisiae, UniProt P32597 1183-1240, looked up)
chain: EVKSSSVEIINGSESKKKKPKLTVKIELNKTTVLENNDGKRAEEKPESKSPAKKTAAK
notes: as for B11
- fold increase of KD against wild-type Sth1EBM [1]: 79 fold

B16: Snf5EBM L787A (peptide)
chain: SPPCYIIDHIPGHSLLASIKLPGKVNTKEE
- Kd [3]: 41.5 µM

B17: Ino80_(368–390) (peptide, UniProt P53115 368-390, looked up)
peptide: DSKLNIKITLKQYHVKRLKKLIN
notes: Ino80, Saccharomyces cerevisiae, residues 368-390; also called Ino80EBM; source: synthetic peptide (Scilight-Peptide and GenScript) for NMR
- binding result [1]: binds
- Kd [2]: 0.25 µM

B18: Snf5_(771–800) (peptide, UniProt P18480 771-800, looked up)
peptide: SPPCYIIDHIPGHSLLLSIKLPGKVNTKEE
notes: also called Snf5EBM; source: synthetic peptide (Scilight-Peptide and GenScript) for NMR
- binding result [1]: binds
- Kd [2]: 2.48 µM

B19: Snf5EBM I789A (peptide)
chain: SPPCYIIDHIPGHSLLLSAKLPGKVNTKEE
- Kd [3]: 189 µM

B20: Ino80EBM I373A (peptide)
chain: DSKLNAKITLKQYHVKRLKKLIN
- Kd [3]: 3.86 µM

B21: Taf2_(1393–1406) (peptide, UniProt P23255 1393-1406, looked up)
peptide: RSFMVKIRTKNDAK
notes: Taf2, Saccharomyces cerevisiae, residues 1393-1406; source: synthetic peptide (Scilight-Peptide and GenScript) for NMR
- binding result [1]: binds
- Kd [2]: 0.8 µM
